These results are taken from the NTF2 design screens of Basanta et al. (2020).

The series can be described thus: protease stability score; higher = more stable; yeast display proteolysis, trypsin and chymotrypsin.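 Also: log10 excess protease needed over predicted unfolded state with 0 meaning unfolded.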
“DDTRKAKELADRIVKAIKHGDEEYYERLVDKDVHADVGDRTVRGSETLVNTFQHEVEKADHIDAKVRSVSAHNGKIHISITVVVDVNGQQNSKEYTVIANTSNGRVRVEQINFK” yielded a protease stability score of 0.454. In turn, “DDTRVKFALHLIKLEETGDEDKLRELMDPNAKISVGDKTYHGREEIVRELRRENHEMRVRIKQFRSTASGEKVRITMDAEFEHNGKPDRFELEVVFDFTNGRVKHIELHERR” displayed a protease stability score of 1.22. As for “DDTTRAKEWAEELNRIYRNGDPKELEKQMDKDVRLIIGEKHIHGRSQAMNWMRELMKKADHIELRIHDVKVQGENVTVVVVYRINVNGRDVQRRVIIVAEVHNGHLKIKEMHES”, the protease stability score came to 1.88. The result for “DDTVKEQAEKFFTAQNTGNPDQIANLVDPNARFTIGDKEYHGRENFKSWMETVRDKMDVDYQITDLKTDENHADVVAEYTSTHNGQPERRRMRVDMRLSNGRMKEVNIEDRS” reads -0.503; that for “DDTVQRMVDKFLENLKTGNEEDISKMADPNVSLNYGDKRIHGREQLMQWVERQEKEMRVEFQIRHVDVHGNKAHVTADMRIHNNGDPDNARVQFVVNAQGDKVKTITFHKTR”, -0.14. In the case of “DDTVRELVKQLRTALESNDEKKVKRLVDPNAQFQYGDKTLHGMTHAASRRVKEHQEIRLSIKKFHVNVSGDHVRVEFRYEVNVNGRPRKASATFTARFENGKMKEQRLRFDEDEYRKLKK” it was 0.063; in that of “DEDAAKDYETIVKQQESGDEDKVRQNVDPNAKWHIGEKKVHGRESLANEVHRVRRQMNERMEVKTVKDQGDKANVEMRVVQQHNGEPKDYTMQVDVHAHNGRLREVKATEQS”, -0.388. “DEDAARKIRKLVEDWANGDPQSVADQMDENAEVHIGDQTLHGRDHVRKFVEKLSEQIRISVQSVTVRASGNHITAHVQMEVDVNGHPDTITFRIHADVDNGRIKSMEYRMDEQEQRKRTS” returned a protease stability score of 0.346. The result for “DEDAARRMLEFLRQMEQGNEHELRHLADPNARMRVGDHTLHGMEDIAREQVERNRRLRFSNKVDRIKNDGDKVNLQIRFQIDVNGKPFTDVVSVNVHEHNGKIEFVEFRVPEEFREKVKR” reads 0.1; that for “DEDAARSAEHLQRHNDFDEFARRADENVRLRVGDFRFQGREQVIRFMKRFTDRFDHVQFRRMDFHGNRMQAEFVAEVNGKTVKMKESFQIDNGRVHSVTQEATSEEDQEELKRLID”, 0.254. The result for “DEDADRKFQDMVENEHRGDNDKLKKMADKNVKFTVGDKSIHGMEDYATEVRKRKERSRVRYKDVRSNDHNGRVVVKFDAQRNHNGQPKDFHVTVHFRMENGKLKEMEVRTDQ” reads 0.052; that for “DEDADRVFEEFIRAKTRGDPDRLSQLVDPNVRMHVGDQELRGRDTVRRFLHEVLHHARNDIHIQSMEVDGDHVSVEFKATTEHNGQPRTDRMTASAKIDNGRIKSLQEHSKK”, -0.297. In the case of “DEDAEKHWRTFLRNQKTGDEQKMRDQVDPNARASIGDQEVEGREKIVRELVEEFRHMHVQINWKSLTAHNGKVHAHADAQVDHNGRPQTYKITASAQFSNGKIKEFKMQRRP”, the protease stability score was -0.013.

With “DEDAEREIDRLVRDNNEEDIERLMPEDAKMQVGDKTVTGRENIATQIKRLNQKADHRRIDKITLQGERVVINFTIVVNGTKFKAKIVLHAHNGKIKVVVLRARDEDLDREMSKVMN”, the protease stability score amounted to 0.028. “DEDAERHVTEMIHAYKHNNPEKVQTYMDKHVKIKVGDKTVKGREERAKELRKQKDQMRVDYDVHSMNVKGDKITARLRVDITVNGQPHTFEYHLIVKWTNGKIQELSVEFPEEDQKKQSR” came in with a protease stability score of -0.086. “DEDAERLINQLLTAERRGNPDQVMQQVDKNATQTVGDKHIHGREDISREVEKRKRESRVDRKVESIDIRGNQARIEVHFEEDRNGKPVTSAQTMDITFHNGVVHERKVQDDS” registered a protease stability score of -0.743.

“DEDAERRMREQLKVFNRGNPDQMVKYMDKDARIEVGDTVVEGREDWRHEIDKQKKEAKYKIDVKRVDVDGDDLTIDATISVDHNGKPREKKLIVEAKLHNGKLKHARYDNRG” registered a protease stability score of -0.05.

For “DEDAFRVWRRLLSAIRDGDEDKVRNQADENATATIGDKTWHGMTTLAHELVHEARNLRFTQRITHYSVDNGRVNADYRFTKNENGRPQEDRVLVRFVAHNGQLKSVHNTKIS”, the protease stability score was determined as 0.131.

Turning to “DEDAHKRYEHIERVMEHGDESTLEQLMDPNARIQVGDKEVRGMNKWAKEVAEEIRQMEVRVDIKSVDVRGNRVRVEAKYTVNVNGRPKTATKEVVLDFENGRVSYVQVRFDPDRKKSIDQ”, the protease stability score was determined as 0.443. In the case of “DEDAHRLVEEFWRALKDGDSEQIKELADKDVHVQVGDTKVHGREELASQVQRERDQMSVDLKIDHVELNEDHVDVEAKMVVEHNGKPKTNKAKLDFRFHNGKLQMMRRQTRQ” it was -0.184; in that of “DEDAHRRASTLMTAIENNDPHKVMQMFDEDAKVDVGDKRVSGRERQAEEERERNTQSRVRYKSYKIDAQGNKVRVHADFEVHHNGRPDRKRMKAVFNYDNGKIKQATVKDDK”, -0.235. In the case of “DEDAIRSVEKMLQDRRTGNPHEVQKMFDPNAQVDVGDKTVQGRENIKDHVETDLRQSRFHMEIKHVQAHNGQIDIDAERSYTRNGQPDSNRVEIVIDIKNGKIRSVKVRTDD” it was -0.488; in that of “DEDAIRVANEILKAIKEGDPHQIEEQFDKHARATYGDKTIEGSKNIMNFQKQMMDRASIKIDSVRLKNQGDHANLDYRAKVTHNGTPNDRRFTADVTVRNGKMRVFDVESRP”, -0.365; in that of “DEDAKKQVETMIRLIERGNEKEIKKQMDPNATYQVGDNRLHGMDQVNKHLKDLKEQMRFVFDVKSITVRGDKVDIDLQLDKNENGRPDKEDARMIVHVHNGSVKSVIVTTRG”, 0.143.

As for “DEDAKRSLNELWKAIQQGDPDRIRELIDKNVRLRYGEKRIHGRDQAAKFWHDLHDHARFKVRDVSIKIHNGRADVRMRMTIHINGEPLDVTVIYKIEFHNGQAVRIELEVDEDQLRKQRK”, the protease stability score came to 0.845. The result for “DEDAKRVANEISKAFDQNDPDKARQLADENAEVQIGDKVLHGRDQATNQLERQREEQNEHVDSVEIDVDGDKLKVRIHFNSHSNGRPRRNTRTYTIVVRNGHLQHLDMKENG” reads -0.246. In the case of “DEDALDLLEKAARAYQTGDPDQLMRNLDEDAKVDVGDKKIRGRNDARRHLQELKDKIELHLHVTEMSVQGNKVHAHFKLHSDQNGKPYHTDVEMRADVHNGRVKRMEIRTTK” it was -0.159; in that of “DEDALDQVEEMMRNNNEQEIADRADKDVEVEYGDHELHGREDMQDWAEKWQQQVDHLEVKSVHKKGDHFKMKLRAVFNGQEYTFVMVVEVHNGKIKNIKYDATSKEVKEIQKEVLK”, -0.163. “DEDALKQMHENLENIKEGDPDKIKKMFDENARVEVGDKVLNGRDQASKFWSELRDQINIHIRDVKLSVSGEEVTINIDARFTHNGQPQTSIFRIEAELHNGTIKSLRVKLDG” gave a protease stability score of 2.02. In the case of “DEDALRKFKEFLEIKREGDERRLLELFDENVKIVVGDTELEGMTEAARDITRKRKEMRVEQRYDRFHVQGEHIRARARFTVKFNGRPHTNENTFRVVLRNGHYKSYELKIDPDELRKLDS” it was -0.083. The result for “DEDALRNWEQFIRNYKHGDETELQKLVDPNVHVRIGDREIHGREKLREHWRRQKEHARVDINVRSLEDQGSKVQVTFKMQYQVNGQPKHNSMRMEFTVRNGRIVEASYQFDPDEHRKLQS” reads 1.23; that for “DEDALRVFDKLVKAWKNNDEDKMKKLMDPNVKVEYGDKQVHGMDEYLHSMVTRQRQIRVHFRVKDIKTRPGRVVANYEVEEENDGKPHHTKVRVTLKVHNGRVKQAEYDVKP”, 0.017; that for “DEDALTRIEDAAKHMNEGNFERYADMADPNAHVNIGDKTYQGRESLKHLMQEQRERWEFKLDVRRVDQDGEKAVVTAKVNQKHNGKPDTKTVYIYVSWKNGRAQEIEVRQDS”, 0.319. In the case of “DEDALTRLREFDDNVRKGNKHRLQDLMDPNVKVRYGDTEIKGREHVAKELKKLVDTMHIEIDYKSMSAEGNHATLTAEVVVQVNGRPIKFRMHVQVQFENGKIKELVYRFSEDAQKKMDG” it was 1.53; in that of “DEDAMKRFKDLLRAQETGDEHRIRELVDPNAQFVIGDRKITGREEYVRIFREERENMHIDLEVKSVSVKGNKLTIHLTFKVDHNGKPMRASAQIQVKIRNGRIQEVQYDFDEDQLRKLKR”, 0.32. “DEDANDVVRKYIEAVNTGDPDQVNELVDPNVRVEVGDKTLSGHEEIRKEQQERTKQSRVEIEVKQMKVHGDNIILYAVVRYNHNGKPSSRHVKMTFSAHNGHFKHIRVHDDQ”: the protease stability score stood at 0.809. As to “DEDANENIRKQLEWEEKGNPQQAKKQADPNAQFNIGDHTFNGMDEYMHWVKRELTHLRIEIKDVKFDVQGEKIEIDVRFVVDENGRPKEDRQDFDVTMHNGHIHNINVDKIS”, the protease stability score is -0.21. In the case of “DEDANHRFKDQVRAIKTGDSKRVEELVDPNVHNHVGEWRVHGSTHWATLAKQVRDEMRVDLDIKSVENSGNKLNIDANVIIDHNGKPHRNQVNWNVNNHNGRIQEASAKKSN” it was -0.484; in that of “DEDANKVMKKVVEAIKEGDPDTIRKLVDPNARVNVGDTTVNGREEFARQNHEKMNQSRIHYLSMDFEQREGHAVVTVRFEKHHNGKPDTDRYRATANFKNGKLTEYKQKEDG”, -0.291; in that of “DEDANNTAKEMLENIDEGNEKRWSELMDENATFNVGDKTYHGRENAEHLFRERKDEMRIEIDLHKVEVSGDHVVLDITVVKEHNGKPRRVDVQVEFRIHNGRMQEFVQDEHG”, 0.245. In the case of “DEDANRELHKAMKHNDWDLLAKQMDKDVSKQVGDKTVHGRDRIQEDIKRLKTEIDHMEIEHVSARGDHLTADVHLVVNGQHVKFVIHIQFDNGRIKQIQWQVRDEDVEKQMKKLKG” it was -0.074; in that of “DEDANRKAEEFAQNLRENDEDRLQQLVDPNARLNVGEFSVHGRTELTHQLRRVTREMRVEVQIRDIRVQNGHAHLDIEVVIDHNGKPSSRVLRMVVDFRNGKIQNLDVRTDQ”, 0.601. In the case of “DEDANRKAREYAHAREHGDPRHAREYADPNAEFTVGDKSFHGMQEDVERMERERKEMRVEIKDVQVSAHDGRLTLDLRFVKDNNGQPREVRQNVQFNIENGRATEIDVQETK” it was -0.214; in that of “DEDANRLVEEYIRAVEKGDEDQARRMMDENVTVKVGDKTVHGHDHQAREMNKVKKQARIEIKDYRLDNSNGRVVIRMTFIADRNGKPITFDIVIIINFHNGRAKNMHVHISEEELKRLEG”, 1.06; in that of “DEDANRRLRRLIEQIHENDPDKIDEMFDPNARVDIGDHTVHGREQLRQTVKREAKEIRIRIERLDVRVKGDKATVEMHFVRKNNGEPRSNRVVVTARIRNGKIESMKQTEDG”, 0.763. As to “DEDAQELAEQLWTAWETGDPRQIQNLMDPNVNFRYGDKTFQGREHLHRLIKDIQENIRIDYRHYSVDVKGDKASIKINIQLHHDGKPETKTNDLTIHFSGDRIQRVEQNDRQ”, the protease stability score was 0.248. Turning to “DEDAQKQVEKMLQAVREGDDRQIKRLFDPNAEINVGDKHVTGREQATKEMSKRKKEMDIDIKIEEVQVKGDRVELKAVVLENKNGDPQTFHVRAVYHAHNGKIRTNNVEKDG”, the protease stability score was -0.074.
